Test results: article PMC12486813
pKd: −log10 of the molar value.

Target: FcγRI (CD64) (UniProt P12314)
Test: BLI; binding-dissociation kinetics of FcγRI (CD64) with the antibody; who was immobilised not stated for this experiment; KD is the average of two independent experiments

Sequence of UniProt P12314 (P12314 16-374): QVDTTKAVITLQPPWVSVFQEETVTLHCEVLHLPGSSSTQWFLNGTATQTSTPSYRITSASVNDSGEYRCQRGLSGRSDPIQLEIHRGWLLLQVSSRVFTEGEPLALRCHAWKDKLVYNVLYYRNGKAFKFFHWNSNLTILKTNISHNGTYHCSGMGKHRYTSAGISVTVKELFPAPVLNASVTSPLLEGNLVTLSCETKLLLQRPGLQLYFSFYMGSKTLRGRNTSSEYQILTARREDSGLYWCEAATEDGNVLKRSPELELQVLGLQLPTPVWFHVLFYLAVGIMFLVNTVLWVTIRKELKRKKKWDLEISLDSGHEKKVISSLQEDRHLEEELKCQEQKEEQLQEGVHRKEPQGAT

pKd: 5.32
Substance: 5C8 (LALA) (antibody)
